The target in the test is T1, GST-17NAnk (GST-tagged N-terminal (1–305) zDHHC17) (murine, UniProt Q80TN5 1-305).
T1 construct: zDHHC17, murine cDNA, N-terminal residues 1–305 with the AR domain; also called GST-17Ank; GST-tagged AR-containing cytosolic region of zDHHC17; source: E. coli BL21(DE3)pLysS, purified (glutathione resin)
T1 sequence (looked up): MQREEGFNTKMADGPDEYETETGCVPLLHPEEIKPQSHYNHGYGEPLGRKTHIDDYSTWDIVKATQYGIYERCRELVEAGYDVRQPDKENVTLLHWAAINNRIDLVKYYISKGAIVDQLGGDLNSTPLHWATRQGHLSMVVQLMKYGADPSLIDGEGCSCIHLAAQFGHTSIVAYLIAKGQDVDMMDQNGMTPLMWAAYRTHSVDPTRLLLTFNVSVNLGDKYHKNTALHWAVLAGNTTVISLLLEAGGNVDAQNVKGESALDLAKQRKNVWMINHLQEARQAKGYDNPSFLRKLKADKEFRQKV
The test is described as follows: pull-down; 20 μg GST-17NAnk (or GST) on 10 μl glutathione-Sepharose, 20 μg His6-CSPα or His6-SNAP25b(93–206) (and competing amounts of the other), overnight at 4 °C, PBS washes, Coomassie staining. To be noted: both partners purified.

B1: His6-CSPα (natural protein, bovine, UniProt Q29455 1-198, looked up)
chain: MADQRQRSLSTSGESLYHVLGLDKNATSDDIKKSYRKLALKYHPDKNPDNPEAADKFKEINNAHAILTDATKRNIYDKYGSLGLYVAEQFGEENVNTYFVLSSWWAKALFIFCGLLTCCYCCCCLCCCFNCCCGKCKPKAPEGEETEFYVSPEDLEAQLQSDEREAADTPIVIQPASATETTQLTADSHPSYHTDGFN
notes: CSPα, bovine cDNA; also called His-tagged CSPα; source: E. coli BL21(DE3)pLysS, purified (Ni2+-NTA)
For B1, the binding result is “binds”.
